Data reported in patent US20090280480A1.

Key:
[1] = molecular target: NM fibers (amyloid fibers assembled from Sup35 NM; also used sonicated as seed) (Saccharomyces cerevisiae) (UniProt P05453); assay: seeded fibre elongation; sedimentation of soluble NM plus acrylodan wavelength-shift assay, Lineweaver-Burk plot (Michaelis-Menten model of soluble NM binding to seed and converting)
[2] = molecular target: NM fibers (amyloid fibers assembled from Sup35 NM; also used sonicated as seed) (Saccharomyces cerevisiae) (UniProt P05453); assay: seeded fibre elongation; sedimentation of soluble NM plus acrylodan wavelength-shift assay, Lineweaver-Burk plot

Chain of NM fibers (amyloid fibers assembled from Sup35 NM; also used sonicated as seed) (Saccharomyces cerevisiae) (P05453 1-253): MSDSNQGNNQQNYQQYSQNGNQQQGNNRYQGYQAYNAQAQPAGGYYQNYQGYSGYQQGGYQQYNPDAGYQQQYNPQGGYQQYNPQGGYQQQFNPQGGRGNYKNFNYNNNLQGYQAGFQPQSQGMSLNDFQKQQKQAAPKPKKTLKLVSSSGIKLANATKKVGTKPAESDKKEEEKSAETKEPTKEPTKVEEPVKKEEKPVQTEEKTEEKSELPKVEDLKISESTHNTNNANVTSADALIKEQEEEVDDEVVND

Substance: NM^T158C-acrylodan (soluble) (from UniProt P05453 1-253) (other; other documents disagree on this pair)
- Km [1]: 0.12 µM
- kconf/Km (conformational conversion efficiency) [2]: 42000 M⁻¹ s⁻¹
